Reference: US20190055556A1 (Stanford University, published 2019)

T1: brevican (BCAN) (human, UniProt Q96GW7 23-911, limits assumed)
T1 construct: Control protein of the pull-down assay
T1 sequence (looked up): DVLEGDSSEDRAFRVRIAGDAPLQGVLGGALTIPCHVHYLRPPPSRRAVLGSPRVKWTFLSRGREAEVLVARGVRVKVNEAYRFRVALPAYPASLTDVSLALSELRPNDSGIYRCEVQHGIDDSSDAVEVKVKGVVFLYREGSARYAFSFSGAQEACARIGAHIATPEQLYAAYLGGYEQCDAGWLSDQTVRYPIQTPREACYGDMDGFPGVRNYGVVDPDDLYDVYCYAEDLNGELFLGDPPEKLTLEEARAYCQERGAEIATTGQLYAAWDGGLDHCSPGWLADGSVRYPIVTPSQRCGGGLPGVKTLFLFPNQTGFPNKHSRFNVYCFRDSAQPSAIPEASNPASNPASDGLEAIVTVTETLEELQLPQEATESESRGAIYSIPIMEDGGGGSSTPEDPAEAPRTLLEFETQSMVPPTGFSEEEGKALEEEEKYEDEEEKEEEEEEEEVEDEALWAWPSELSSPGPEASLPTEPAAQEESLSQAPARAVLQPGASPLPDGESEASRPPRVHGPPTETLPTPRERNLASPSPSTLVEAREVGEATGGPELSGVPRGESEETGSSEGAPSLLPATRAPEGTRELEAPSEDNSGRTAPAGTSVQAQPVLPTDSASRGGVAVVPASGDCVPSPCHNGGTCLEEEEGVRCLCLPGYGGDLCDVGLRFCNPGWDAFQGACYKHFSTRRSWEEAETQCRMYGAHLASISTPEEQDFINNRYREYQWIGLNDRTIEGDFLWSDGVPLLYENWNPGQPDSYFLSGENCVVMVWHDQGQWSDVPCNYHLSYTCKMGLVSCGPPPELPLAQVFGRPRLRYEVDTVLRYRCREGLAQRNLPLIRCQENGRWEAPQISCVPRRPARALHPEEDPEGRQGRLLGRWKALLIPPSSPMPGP

B1: insulin-like growth factor binding protein 2 (IGFBP2) (other, human, UniProt P18065 36-325, looked up)
chain: AEVLFRCPPCTPERLAACGPPPVAPPAAVAAVAGGARMPCAELVREPGCGCCSVCARLEGEACGVYTPRCGQGLRCYPHPGSELPLQALVMGEGTCEKRRDAEYGASPEQVADNGDDHSEGGLVENHVDSTMNMLGGGGSAGRKPLKSGMKELAVFREKVTEQHRQMGKGGKHHLGLEEPKKLRPPPARTPCQQELDQVLERISTMRLPDERGPLEHLYSLHIPNCDKHGLYNLKQCKMSLNGQRGECWCVNPNTGKLIQGAPTIRGDPECHLFYNEQQEARGVHTQRMQ
notes: Control protein of the pull-down assay
B2: SPARC-like protein 1 (SPARCL1) (other, human, UniProt Q14515 17-664, looked up)
chain: IPTNARLLSDHSKPTAETVAPDNTAIPSLRAEAEENEKETAVSTEDDSHHKAEKSSVLKSKEESHEQSAEQGKSSSQELGLKDQEDSDGHLSVNLEYAPTEGTLDIKEDMSEPQEKKLSENTDFLAPGVSSFTDSNQQESITKREENQEQPRNYSHHQLNRSSKHSQGLRDQGNQEQDPNISNGEEEEEKEPGEVGTHNDNQERKTELPREHANSKQEEDNTQSDDILEESDQPTQVSKMQEDEFDQGNQEQEDNSNAEMEEENASNVNKHIQETEWQSQEGKTGLEAISNHKETEEKTVSEALLMEPTDDGNTTPRNHGVDDDGDDDGDDGGTDGPRHSASDDYFIPSQAFLEAERAQSIAYHLKIEEQREKVHENENIGTTEPGEHQEAKKAENSSNEEETSSEGNMRVHAVDSCMSFQCKRGHICKADQQGKPHCVCQDPVTCPPTKPLDQVCGTDNQTYASSCHLFATKCRLEGTKKGHQLQLDYFGACKSIPTCTDFEVIQFPLRMRDWLKNILMQLYEANSEHAGYLNEKQRNKVKKIYLDEKRLLAGDHPIDLLLRDFKKNYHMYVYPVHWQFSELDQHPMDRVLTHSELAPLRASLVPMEHCITRFFEECDPNKDKHITLKEWGHCFGIKEEDIDENLLF
notes: Endogenous protein in SVZ hNPC conditioned media

Tests used:
Assay in all cases: co-immunoprecipitation from SVZ hNPC conditioned media, Western blot
[1] = molecular target: T2, heat shock protein 90B (HSP90B) (human, UniProt P14625 22-803, limits assumed)
T2 construct: Endogenous protein in SVZ hNPC conditioned media; 'HSP90B' alone is ambiguous
T2 sequence (P14625 22-803 limits assumed): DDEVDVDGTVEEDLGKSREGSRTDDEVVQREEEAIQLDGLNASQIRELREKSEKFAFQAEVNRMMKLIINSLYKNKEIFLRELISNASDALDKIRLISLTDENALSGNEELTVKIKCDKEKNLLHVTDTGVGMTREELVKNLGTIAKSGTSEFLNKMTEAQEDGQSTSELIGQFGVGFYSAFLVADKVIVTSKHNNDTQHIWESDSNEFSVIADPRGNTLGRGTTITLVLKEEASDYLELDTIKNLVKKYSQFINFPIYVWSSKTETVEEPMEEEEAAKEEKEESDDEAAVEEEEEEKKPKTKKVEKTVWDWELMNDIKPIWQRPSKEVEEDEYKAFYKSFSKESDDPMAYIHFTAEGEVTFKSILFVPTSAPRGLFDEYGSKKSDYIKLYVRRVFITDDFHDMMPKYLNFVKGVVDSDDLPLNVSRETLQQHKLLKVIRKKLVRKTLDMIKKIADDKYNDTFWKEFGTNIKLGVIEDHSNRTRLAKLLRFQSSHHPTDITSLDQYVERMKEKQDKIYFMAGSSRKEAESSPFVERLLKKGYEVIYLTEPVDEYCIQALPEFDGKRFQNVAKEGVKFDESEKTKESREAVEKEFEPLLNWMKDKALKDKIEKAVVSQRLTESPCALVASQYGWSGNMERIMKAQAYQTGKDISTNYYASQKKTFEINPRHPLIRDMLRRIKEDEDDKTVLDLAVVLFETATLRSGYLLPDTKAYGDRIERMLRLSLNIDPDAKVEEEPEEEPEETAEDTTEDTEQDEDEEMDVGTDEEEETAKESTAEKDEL
Procedure: (§1) To assess the specificity of the pull-down assay, three control proteins also present in SVZ hNPC CM: 78 kDa glucose-regulated protein (GRP78), insulin-like growth factor binding protein 2 (IGFBP2), and brevican (BCAN), were immunoprecipitated and were not found to copurify with any of the four proteins (FIG. 4D).
(§2) Immunoprecipitation reactions were conducted using the Pierce Crosslink Magnetic IP/Co-IP Kit (Thermo Scientific, Waltham, Mass.). 25 μL of Pierce Protein A/G Magnetic Beads per reaction were rinsed and incubated with 5 μg of antibody on a rotating platform for 15 minutes at room temperature. Antibodies used were: mouse anti-pleiotrophin (Santa Cruz Biotechnology, Santa Cruz, Calif.), rabbit anti-SPARC (Santa Cruz Biotechnology, Santa Cruz, Calif.), mouse anti-SPARCL1 (Santa Cruz Biotechnology, Santa Cruz, Calif.), rabbit anti-HSP90B (GeneTex, Irvine, Calif.), rabbit normal IgG (Santa Cruz Biotechnology, Santa Cruz, Calif.), and mouse normal IgG (Santa Cruz Biotechnology, Santa Cruz, Calif.). Beads were rinsed, and subsequently crosslinked to the antibodies using 0.02 mM DSS for 30 minutes at room temperature. Beads were washed and then incubated with a mixed combination of 250 μL neural precursor cell conditioned media and 250 μL IP lysis/wash buffer overnight at 4° C. The following morning, beads were washed, resuspended in Laemmli loading buffer, and boiled at 100° C. for 5 minutes to release the bound antigens from the beads. Samples were loaded immediately onto Western blots for analysis of the bound antigens, or stored at −20° C. for future analysis. For Western blot analysis, 2% of the input conditioned media was loaded, and 5% of the IP bound antigen samples were loaded.

[2] = molecular target: B2
Procedure: as §1, §2

[3] = molecular target: B1
Procedure: as §1, §2

brevican (BCAN) = molecular target: T1, brevican (BCAN)
Procedure: as §1, §2

[4] = molecular target: T3, 78 kDa glucose-regulated protein (GRP78) (human, UniProt P11021 19-654)
T3 construct: Control protein of the pull-down assay
T3 sequence (P11021 19-654 limits assumed): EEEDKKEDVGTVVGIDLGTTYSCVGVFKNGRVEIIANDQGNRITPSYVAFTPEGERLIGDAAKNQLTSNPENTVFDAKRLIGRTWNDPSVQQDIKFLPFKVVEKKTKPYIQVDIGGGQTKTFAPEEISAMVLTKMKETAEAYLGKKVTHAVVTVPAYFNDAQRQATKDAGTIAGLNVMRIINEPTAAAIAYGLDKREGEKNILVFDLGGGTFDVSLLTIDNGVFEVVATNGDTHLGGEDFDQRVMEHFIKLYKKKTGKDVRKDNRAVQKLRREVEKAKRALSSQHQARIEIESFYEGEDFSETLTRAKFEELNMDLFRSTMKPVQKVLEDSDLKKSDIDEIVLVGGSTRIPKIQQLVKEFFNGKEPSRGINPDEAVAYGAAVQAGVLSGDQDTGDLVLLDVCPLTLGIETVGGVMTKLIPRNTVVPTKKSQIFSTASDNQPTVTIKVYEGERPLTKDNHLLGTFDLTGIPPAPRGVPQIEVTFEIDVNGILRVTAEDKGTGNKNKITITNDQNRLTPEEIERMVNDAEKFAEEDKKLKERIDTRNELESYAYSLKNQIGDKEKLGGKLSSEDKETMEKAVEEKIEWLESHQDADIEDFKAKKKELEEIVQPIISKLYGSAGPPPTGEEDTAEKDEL
Procedure: as §1, §2

binding result [1]	binding result [2]	binding result [3]	binding result (brevican (BCAN))	binding result [4]	Binder
no binding	no binding				B1
		no binding	no binding		secreted protein acidic and rich in cysteine (SPARC) (other, human, UniProt P09486 18-303, looked up, Endogenous protein in SVZ hNPC conditioned media) APQQEALPDETEVVEETVAEVTEVSVGANPVQVEVGEFDDGAEETEEEVVAENPCQNHHCKHGKVCELDENNTPMCVCQDPTSCPAPIGEFEKVCSNDNKTFDSSCHFFATKCTLEGTKKGHKLHLDYIGPCKYIPPCLDSELTEFPLRMRDWLKNVLVTLYERDEDNNLLTEKQKLRVKKIHENEKRLEAGDHPVELLARDFEKNYNMYIFPVHWQFGQLDQHPIDGYLSHTELAPLRAPLIPMEHCTTRFFETCDLDNDKYIALDEWAGCFGIKQKDIDKDLVI
			no binding		B2
		no binding	no binding	no binding	pleiotrophin (PTN) (ligand, human, UniProt P21246 33-168, looked up, In the SEC and co-IP experiments this is the endogenous protein in SVZ hNPC conditioned media) GKKEKPEKKVKKSDCGEWQWSVCVPTSGDCGLGTREGTRTGAECKQTMKTQRCKIPCNWKKQFGAECKYQFQAWGECDLNTALKTRTGSLKRALHNAECQKTVTISKPCGKLTKPKPQAESKKKKKEGKKQEKMLD
